In experiment [1] the target is T1, Muc1 mucin bearing the CA6 sialoglycotope (DS6 antigen), as expressed by CA6-positive human tumour cell lines (human, UniProt P15941 24-1255, sialylated O-linked carbohydrate carrying the CA6 glycotope; sites not stated). Description: cell-based or functional assay.
Experiment [2] deals with T1, Muc1 mucin bearing the CA6 …. Description: flow cytometry competition; competitor 2 nM biotin-muDS6, streptavidin-DTAF; called IC50 in the legend of FIG. 19. How it is done: In the first set of experiments direct binding to a CA6-expressing cell line, KB, was measured.
For experiment [3] the target is unchanged. Description: flow cytometry on HeLa cells (FIG. 28), apparent Kd, probably pM.

B1: murine anti-CA6 monoclonal antibody DS6 (antibody, mouse IgG1, V domains shown)
VH: QAYLQQSGAELVRSGASVKMSCKASGYTFTSYNMHWVKQTPGQGLEWIGYIYPGNGATNYNQKFKGKATLTADPSSSTAYMQISSLTSEDSAVYFCARGDSVPFAYWGQGTLVTVSA
VL: QIVLTQSPAIMSASPGEKVTITCSAHSSVSFMHWFQQKPGTSPKLWIYSTSSLASGVPARFGGSGSGTSYSLTISRMEAEDAATYYCQQRSSFPLTFGAGTKLELKR
notes: Whole murine monoclonal antibody from the hybridoma (ATCC PTA-4449); They were cloned with murine IgG1 and kappa primers; also called muDS6; the DS6 antibody
The EC50 is the concentration at which the effect is half-maximal. Take B1: in experiment [1], the “indirect cell viability assay on Caov-3 cells with anti-mouse IgG (H+L) DM1 conjugate, IC50” value is 425 µM. In experiment [2], this molecule came in with an EC50 of 1.9 nM. In experiment [3], the Kd came out at 620 µM.

B2: chimeric DS6 antibody (antibody, V domains shown)
VH: QAYLQQSGAELVRSGASVKMSCKASGYTFTSYNMHWVKQTPGQGLEWIGYIYPGNGATNYNQKFKGKATLTADPSSSTAYMQISSLTSEDSAVYFCARGDSVPFAYWGQGTLVTVSA
VL: QIVLTQSPAIMSASPGEKVTITCSAHSSVSFMHWFQQKPGTSPKLWIYSTSSLASGVPARFGGSGSGTSYSLTISRMEAEDAATYYCQQRSSFPLTFGAGTKLELKR
notes: Expressed in CHO cells; also called chDS6
B2 yielded an EC50 in experiment [2] of 1.7 nM.

B3: humanized DS6 antibody version 1.21 (antibody, V domains shown)
VH: QAQLVQSGAEVVKPGASVKMSCKASGYTFTSYNMHWVKQTPGQGLEWIGYIYPGNGATNYNQKFQGKATLTADPSSSTAYMQISSLTSEDSAVYFCARGDSVPFAYWGQGTLVTVSA
VL: EIVLTQSPATMSASPGERVTITCSAHSSVSFMHWFQQKPGTSPKLWIYSTSSLASGVPARFGGSGSGTSYSLTISSMEAEDAATYYCQQRSSFPLTFGAGTKLELKR
notes: also called huDS6v1.21; huDS6 v1.21
Molecule B3 returned an EC50 in experiment [2] of 1.9 nM.

B4: humanized DS6 antibody version 1.01 (antibody, V domains shown)
VH: QAQLVQSGAEVVKPGASVKMSCKASGYTFTSYNMHWVKQTPGQGLEWIGYIYPGNGATNYNQKFQGKATLTADTSSSTAYMQISSLTSEDSAVYFCARGDSVPFAYWGQGTLVTVSA
VL: EIVLTQSPATMSASPGERVTITCSAHSSVSFMHWFQQKPGTSPKLWIYSTSSLASGVPARFGGSGSGTSYSLTISSMEAEDAATYYCQQRSSFPLTFGAGTKLELKR
notes: also called huDS6v1.01; huDS6 v1.01
B4 had an EC50 in experiment [2] of 3 nM.

Values taken from US20110064733A1 (published 2011).
